Test results as given in US20240262893A1.
Read-outs that look alike come from different tables or passages of the source.

B1: R2D9 CDR3-knob (peptide)
peptide: ITHKTCPNGYNWFDRCCSWDGTCGDGCCSNRAWPSGNGRADSSIGETYGYEF
modifications: not checked
B2: SKM ultralong CDR3 chimeric bovine-human IgG1 antibody (antibody)
VH: QVQLRESGPSLVKPSQTLSLTCTASGFSLSDKAVGWVRQAPGKALEWLGSIDTGGNTGYNPGLKSRLSITKDNSKSQVSLSVSSVTTEDSATYYCTTVHQETLRSCPDGYIDNSGCTADWGCAALDCWRRRFGYHSTDPSHYTGATYIYTYSLHIDAWGQGLLVTVSS
VL: QAVLNQPSSVSGSLGQRVSITCSGSSSNVGNGYVSWYQLIPGSAPRTLIYGDTSRASGVPDRFSGSRSGNTATLTISSLQAEDEADYFCASAEDSSSNAVFGSGTTLTVL
B3: R4C1 ultralong CDR3 chimeric bovine-human IgG1 antibody (antibody)
VH: QVQLRESGPSLVKPSQTLSLTCTASGFSLSDKAVGWVRQAPGKPLEWLGSIDTAENTGYNPGLKSRLSITKDNSKSQVSLSVSSVTTEDSATYYCATVHQKTRKEKNCPDGYIYSSNTASGYDCGVWICRRVGSAFCSRTGDYTSPSEFDIYEFYVEGWGQGLLVTVSS
VL: B2 VL
B4: SKD ultralong CDR3 chimeric bovine-human IgG1 antibody (antibody)
VH: QVQLRESGPSLVKPSQTLSLTCTASGFSLSDKAVGWVRQAPGKALEWLGSIDTGGNTGYNPGLKSRLSITKDNSKSQVSLSVSSVTTEDSATYYCTTVHQRTSEKRSCPGGSSRRYPSGASCDVSGGACACYVSNCRGVLCPTLNEIVAYTYEWHVDAWGQGLLVTVSS
VL: B2 VL
B5: purified R2G3 CDR3-knob (after enterokinase cleavage from trxA) (peptide)
peptide: EGDKTCPDGYEHTCGCIGGCGCKRSACIGALCCQASLGGWLSDGETYTYEF
modifications: not checked

What was measured:
[1] = substrate: S protein of a SARS-CoV-2 delta lineage virus on pseudotyped virus (SARS-CoV-2 (delta lineage)); assay: cell-based or functional assay
[2] = target: T1, SARS CoV-2 spike trimer protein from the parental Wuhan-Hu-1 isolate (extracellular domain, furin-cl (SARS-CoV-2 (Wuhan-Hu-1))); assay: ELISA, spike protein coated, IgG detected with anti-human Fc-HRP; conditions: remark: other sources report otherwise
[3] = target: T1, SARS CoV-2 spike trimer protein from …; conditions: remark: other sources report otherwise
[4] = target: T1, SARS CoV-2 spike trimer protein from …; conditions: remark: other sources report otherwise; remark: listed apart in the source
[5] = target: recombinant stabilized spike protein derived from the beta strain (formerly described as the South A (SARS-CoV-2 (B.1.351)), P0DTC2); conditions: remark: other sources report otherwise

Row | Binder | pseudovirus neutralization, ng/mL (quantity not given) [1] [ng/mL] | EC50 [2] [nM] | EC50 (read off the curve) [3] [nM] | EC50 (read off the curve) [4] [nM] | EC50 (read off the curve) [5] [nM]
1 | B1 | 66.8 | – | – | – | –
2 | B2 | – | 0.19 | 0.2 | – | –
3 | B3 | – | 0.2 | 0.3 | 0.03 | 0.3
4 | B4 | – | 0.16 | – | – | –
5 | B5 | 302 | – | – | – | –
